The results in this text go back to article PMC4004541, “PEG-Like Nanoprobes: Multimodal, Pharmacokinetically and Optically Tunable Nanomaterials” (PLoS ONE, 2014).

The nature of data set [1]: Quantum yield of fluorochrome-bearing peptides and PN's. The class given is physicochemical. The following applies: means±1 S.D. From the text:
(The p values showing significances are in Figure S2 in File S1). […] PEG attachment increased quantum yields in all cases, but as discussed below the magnitude of PEG generated improvement varied with the fluorochrome chosen. A mechanism for the PEG improvement of quantum yield is fluorochrome shielding, or the blocking of fluorochrome-fluorochrome interactions that result in quenching.
However, the magnitude of these benefits varied with the fluorochrome selected. […] Previous studies indicated PEGylated, fluorochrome-bearing peptides have absorption spectra in PBS similar to their unstacked absorption spectra in methanol. […] It appears that longer wavelength fluorochromes have stronger fluorochrome/fluorochrome stacking interactions, which result in more quenching, which is blocked by PEG and which gives rise to larger increases in quantum yield.

The nature of data set [2]: Probe size (volume) by FPLC calibrated with globular protein standards. The settings on record: for Volume FPLC, globular protein equivalent molecular volume: Superdex 200 10/300GL, 0.05 M sodium phosphate, 0.1 M NaCl (0.1% Tween, pH 7.2), 0.8 ml/min, calibrated with globular protein standards; for Volume FPLC Dia. (diameter): globular protein equivalent volume from FPLC converted to spherical diameter by formula (ref 15). The class given is physicochemical. From the text: FPLC chromatograms are shown for PN’s bearing the IR-783 fluorochrome with PEG’s ranging from 2 to 40 kDa ( Figure 2A ). FPLC was calibrated with globular protein standards, and globular protein equivalent molecular volumes (in kDa) were obtained ( Table 1 , column 5). Next, these globular protein equivalent molecular volumes were converted to PN diameters in nm using the relationship: [drawing 1] where M is the molecular weight of a globular protein expressed in daltons. PN diameters ranged from 3.0 to 11.7 nm, which means PN’s can be smaller or larger than albumin (MW = 67 kDa; diameter = 5.4 nm, by the formula above). Thus Table 1 column 5 gives the PN volumes obtained from FPLC expressed in two ways: (i) as the molecular weight in kDa of globular proteins with equivalent volumes, permitting size comparison of PN’s to proteins, and, (ii) as spherical diameters (“Dia.”) in nm, permitting size comparisons of a PN to relative to other nanomaterials. We confirmed the sizes obtained with FPLC by measuring the size of PN(783)11.7 by dynamic light scattering (11.7 nm).
The mass spec of low molecular weight (MW) materials were obtained by MS-ESI Micromass (Waters) and high MW molecules were determined through MALDI-TOF analyses at the Tufts University Core Facility. RP-HPLC (Varian ProStar detector and delivery modules) employed an eluant A (0.1% TFA/water) and eluant B (0.1% TFA and 9.9% water in acetonitrile). Probe size (volume) was determined by FPLC using an ÄKTA Purifier 10 and SuperdexTM 200 10/300GL column (GE Healthcare) with a running buffer of 0.05 M sodium phosphate, 0.1 M NaCl (0.1% Tween, pH 7.2) and flow rate of 0.8 ml/min. Standards (GE Healthcare) were Ferritin, Ribonuclease A, Carbonic Anhydrase, and Conalbumin and Blue Dextran 2000. To obtain probe volumes, Mr (apparent molecular weight based on size exclusion retention) was plotted versus Kav. [drawing 7] , Vt = total volume, Ve = elution volume, Vo = void volume.
PN and peptide characterization: The mass spec of low molecular weights (MW) were obtained by MS-ESI Micromass (Waters) and high MW molecules were determined through MALDI-TOF analyses at the Tufts University Core Facility. RP-HPLC (Varian ProStar detector and delivery modules) employed an eluant A (0.1% TFA /water) and eluant B (0.1% TFA and 9.9% water in acetonitrile). […] Standards (GE Healthcare) were Ferritin, Ribonuclease A, Carbonic Anhydrase, and Conalbumin and Blue Dextran 2000. To obtain probe volumes, Mr (apparent molecular weight based on size exclusion retention) was plotted versus Kav. [picture] , Vt = total volume, Ve = elution volume, Vo = void volume.

In data set [3] the test system is HT-29 cells. The data set is described as follows: Non-specific binding (NSB) to HT-29 cells by FACS. In kind it is cell-based, human. The following applies: 100 μL of nanoprobes (2 μM) added to 100 μl 2% FBS/DPBS, 30 min at 37 °C, means±1 S.D. From the text: We next examined the non-specific binding (NSB) of PN’s to HT-29 cells based on the assumption that NSB minimization will correlate with a desirable minimization of post-IV injection retention. As noted above, after diagnostic drugs generate their added information, retention can only increase the risks of delayed toxicity. The attachment of PEG decreased the non-specific binding (NSB) to HT-29 cells, scored as the percent of cells above the cutoff for unstained cells seen with FACS ( Table 1 , column 7).
PN and peptide binding to cells (effect of PEGylation on NSB): HT-29, a human colon carcinoma cell line, was from the American Tissue Culture Collection and maintained according to their instructions. Cells were seeded on 24-well plates at 5X10^5 cells/well in culture medium (RPMI 1640 with 10% FBS) the day before the assay. The day of assay, medium was removed, wells rinsed twice with DPBS (+Ca, +Mg), and 100 μl of 2% FBS / DPBS (+Ca, +Mg) added. 100 μL of Nanoprobes (2 μM) in DPBS (+Ca, +Mg) was added to cells and incubated for 30min at 37 °C. (Probe concentrations were determined spectrophotometrically (783 nm, extinction coefficient of 314 471 cm^-1 M^-1 for IR-783; 497 nm, extinction coefficient of 68 000 cm^-1 M^-1 for Fluorescein; 545 nm, extinction coefficient of 150 000 cm^-1 M^-1 for Cy3). Cells were detached by Trypsin/EDTA and assayed for fluorescence by FACS (BD 7 laser LSR2 for nanoprobes with IR-783; BD 3 laser LSR2 for nanoprobes with Fluorescein or Cy3).
Figure S4: Effect of PEGylation on non-specific binding to cells by single channel FACS. […] Arrows indicates the cutoff for unstained cells.
Background: A flow cytometer gives signals particle by particle.

For “(DOTA)Lys(PEG 5 kDa)-Cys(IR-783) [PN(783)4.3, PEG-like Nanoprobe: 5 kDa PEG, IR-783 fluorochrome, DOTA peptide]”, in data set [1], the “Quant. Yield” value was 0.16±0.03. In data set [2], the “Volume FPLC, globular protein equivalent molecular volume” value is reported as 35.2 kDa and the “Volume FPLC Dia. (diameter)” value came out at 4.3 nm. Besides, the “Cell NSB: percent of HT-29 cells above the cutoff for unstained cells” value (shortened to “Cell NSB: percent”) in data set [3] is recorded as 20±1%.
For the substance “(DOTA)Lys(PEG 30 kDa)-Cys(Fl) [PN(497)10.0, PEG-like Nanoprobe: 30 kDa PEG, fluorescein, DOTA peptide]”, the “Quant. Yield” value in data set [1] turned out to be 0.60±0.08. Moreover, the “Volume FPLC, globular protein equivalent molecular volume” value in data set [2] amounted to 435 kDa. Moreover, in data set [3], the “Cell NSB: percent” value is listed as 0.1% ±0.1%.
With “(DOTA)Lys(PEG 30 kDa)-Cys(IR-783) [PN(783)10.0, PEG-like Nanoprobe: 30 kDa PEG, IR-783 fluorochrome, DOTA peptide]”, the “Quant. Yield” value in data set [1] is on record as 0.16±0.04. Further, in data set [2], the “Volume FPLC, globular protein equivalent molecular volume” value amounted to 435.4 kDa and the “Volume FPLC Dia. (diameter)” value turned out to be 10.0 nm. The “Cell NSB: percent” value in data set [3] was determined as 18±1%.
